# Data taken from patent US10829528B2, “Therapeutic agents for neurological and psychiatric disorders” (VIB VZW, priority 2016, dated 2020).
# B1: sAPPα: soluble amyloid precursor protein α ectodomain; mouse APP695 18-612aa, Fc tag cleaved (protein)
# chain: LEVPTDGNAGLLAEPQIAMFCGKLNMHMNVQNGKWESDPSGTKTCIGTKEGILQYCQEVYPELQITNVVEANQPVTIQNWCKRGRKQCKTHTHIVIPYRCLVGEFVSDALLVPDKCKFLHQERMDVCETHLHWHTVAKETCSEKSTNLHDYGMLLPCGIDKFRGVEFVCCPLAEESDSVDSADAEEDDSDVWWGGADTDYADGGEDKVVEVAEEEEVADVEEEEADDDEDVEDGDEVEEEAEEPYEEATERTTSTATTTTTTTESVEEVVRVPTTAASTPDAVDKYLETPGDENEHAHFQKAKERLEAKHRERMSQVMREWEEAERQAKNLPKADKKAVIQHFQEKVESLEQEAANERQQLVETHMARVEAMLNDRRRLALENYITALQAVPPRPHHVFNMLKKYVRAEQKDRQHTLKHFEHVRMVDPKKAAQIRSQVMTHLRVIYERMNQSLSLLYNVPAVAEEIQDEVDELLQKEQNYSDDVLANMISEPRISYGNDALMPSLTETKTTVELLPVNGEFSLDDLQPWHPFGVDSVPANTENEVEPVDARPAADRGLTTRPGSGLTNIKTEEISEVKMDAEFGHDSGFEVRHQK
# How the values were obtained:
# [1] = test system: cultured hippocampal neurons; assay: FM1-43 dye labeling of presynaptic vesicle recycling; assay type: cell-based, mouse
# Experimental: We assessed the effect of sAPPα on synaptic vesicle recycling (ref6) using the activity-dependent dye FM1-43. We measured density (D) and intensity (ΔF) of FM1-43 uptake in presynaptic vesicles turned over by stimulation of 30 action potentials (APs) at a rate of 1 Hz in cultured hippocampal neurons.
# The experiments were performed in mature (15-28 days in vitro) cultures. Hippocampal neurons were imaged using a FV1000 spectral Olympus confocal microscope using a 60×1.2 NA water immersion objective. The experiments were conducted at room temperature in extracellular Tyrode solution containing (in mM): NaCl, 145; KCl, 3; glucose, 15; HEPES, 10; MgCl2, 1.2; CaCl2), 1.2; pH adjusted to 7.4 with NaOH. For FM-based imaging and analysis, activity-dependent FM1-43 (10 μM) styryl dye was used to estimate basal synaptic vesicle recycling using previously described protocol48. Briefly, action potentials were elicited by passing 50 mA constant current for 1 ms through two platinum wires, separated by ˜7 mm and close to the surface of the coverslip. The extracellular medium contained non-selective blocker of glutamate receptors (0.5 mM kynurenic acid) to block recurrent neuronal activity. 30 stimuli at 1 Hz were applied during FM1-43 loading, while 800 stimuli at 2 Hz during unloading. The fluorescence of individual synapses was determined from the difference between images obtained after staining and after destining (ΔF). Detection of signals was done using custom-written scripts in MATLAB (Mathworks) as described before48.
# [2] = test system: Schaffer collateral (SC) synapses in mouse hippocampus; assay: fEPSP field recordings at Schaffer collateral synapses in hippocampal slices; assay type: cell-based
# Experimental: We assessed the effect of sAPPα on the synaptic properties of Schaffer collateral (SC) synapses in mouse hippocampus. […] As change in probability of neurotransmitter release inversely correlates with a change in short-term facilitation, we applied a burst of 5 stimuli at 3 different frequencies (20, 50, and 100 Hz) to induce short-term facilitation at the SC. […] Preincubation with the GABABR antagonist CGP54626 (CGP, 10 μM) for 20 min before the incubation with sAPPα blocked its effects on the peak amplitude of the fESPS and the input/output slopes (FIG. 10f-g). Accordingly, CGP occluded sAPPα-induced augmentation of short-term facilitation at 20, 50, and 100 Hz burst frequencies (FIG. 10h-j).
# On the day of recording the brain of a 2-month-old Balb/c male mouse was quickly removed and 400 μm-thick horizontal slices were prepared in an ice-cold oxygenated buffer containing (in mM): sucrose, 182; KCl, 2.5; MgSO4, 2; NaH2PO4, 1.25; NaHCO3, 25; CaCl2), 0.8; MgCl2, 5; glucose, 25; ascorbate, 1; HEPES, 20. The slicing procedure was performed using a Leica VT1200 vibrating microtome. Slices were then transferred to a submerged recovery chamber at room temperature containing oxygenated (95% 02 and 5% C02) storage artificial cerebrospinal fluid (ACSF) for 30 min before the incubations (see below). The storage ACSF contained, in mM: NaCl, 100; KCl, 2.5; MgSO4, 2; NaH2PO4, 1.25; NaHCO3, 25; CaCl2), 1.2; MgCl2, 3; glucose, 20; ascorbate, 1; sodium pyruvate,3 and HEPES, 20. The slices were incubated in the incubation chambers perfused with oxygenated storage ACSF containing the experimental agents for 90 min before performing field recordings: In the incubation chamber, control slices were perfused with normal storage ACSF while sAPPα slices were perfused with storage ACSF containing 1 μM sAPPα. CGP slices were perfused with storage ACSF containing 10 μM CGP54626 (Tocris). CGP+sAPPα slices were preincubated in the chamber perfused with ACSF+CGP before being transferred into the chamber perfused with storage ACSF implemented with 10 μM CGP54626+1 μM sAPPα. All recordings were performed at 32-33° C. in a recording chamber perfused with ACSF (4 ml/min) on the stage of an Olympus BX51WI microscope equipped with IR optics and oblique illumination. Recording ACSF contains, in mM: NaCl, 129; KCl, 2.5; CaCl2), 1.2; MgCl2, 1.2; NaHCO3, 25; NaH2PO4, 1.25; glucose, 15. Stimulation of the Schaffer-collateral was delivered through a glass suction electrode (10-20 μm tip) filled with ACSF. fEPSPs were recorded using a glass pipette containing ACSF (1-2 MΩ) from proximal synapses in the CA1 stratum radiatum. Field recording experiments were analyzed using Clampfit.
molecule,measurement,setting,value
B1,reduction of total presynaptic strength (S=ΔF×D),"[1]; 1 μM, 15 min after addition, 30 APs at 1 Hz",57%
same,effect on presynaptic vesicle recycling (in words),"[1]; FM1-43, sAPPαΔExD at 1 μM",dose dependent manner
same,effect on fEPSP amplitude,"[2]; 1 μM sAPPα incubation, 0.1 Hz stimulation",reducing fEPSP amplitude
same,decrease in the slope of the input/output curve,"[2]; 1 μM sAPPα incubation, 0.1 Hz stimulation, 30-150 μA",23%
same,short-term facilitation versus control slices,"[2]; burst of 5 stimuli at 20, 50 and 100 Hz, 1 μM sAPPα",significantly higher
